Laboratory results from patent US20140227291A1 (AbbVie / Abbott, published 2014).

T1: Abeta(12-42) globulomer (human)
T1 construct: Oligomer
T1 peptide: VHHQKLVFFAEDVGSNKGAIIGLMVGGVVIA

T2: Abeta(20-42) globulomer (human)
T2 construct: Oligomer; also called amyloid-beta (20-42) globulomer
T2 peptide: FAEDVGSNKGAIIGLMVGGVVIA

B1: murine monoclonal antibody m10B3 (antibody, V domains shown)
VH: EVKLVESGGGLVQPGGSRKLSCAASGFTFSDYEMVWVRQAPGEGLEWVAYISSGSRTIHYADTVKGRFTISRDNPKNTLFLQMSSLRSEDTAMYYCARTLLRLHFDYWGQGTILTVSS
VL: not shown
notes: Murine monoclonal antibody from hybridoma after immunization of mice with Abeta(20-42) globulomer; also called mAb m10B3; mAb 10B3
B2: murine monoclonal antibody m4C9 (antibody, V domains shown)
VH: QVQLQQPGAELVKPGASVKLSCKAPGYTFTSYWMHWVKQRPGQGLEWIGRIDPKSGDTKYTEKFKSKATLTVDKPSSTAYMQLSSLTSEDSAVYYCTTMSKLSGTHAWFAYWGQGTLVTVSA
VL: DIKMTQSPSSMYASLGERVTITCKASQDINSYLTWFQQKPGKSPKTLIYRANRLVDGVPSRFSGSGSGQDYSLTISSLEYEDMGIYYCLQYDEFPLTFGAGTKLELK
notes: Murine monoclonal antibody from hybridoma after immunization of mice with Abeta(20-42) globulomer; also called mAb m4C9; mAb 4C9
B3: Anti-Abeta monoclonal antibody clone 6E10 (Covance cat. no. SIG-39320) (antibody, V domains shown)
VH: EVQLQQSGAELVKPGASVKLCTASGFNIKDTYIHWVKQRPEQGLEWIGRFDPVNVNTRYDSRFRGKATITSDASSNTAYLHLNSLTSEDTAVYYCSRSYYNGRRRFTYWGQGTLVTVSA
VL: DIVMTQSPSSLTVTAGEKVALTCKASQSLLSSGNQKNYLTWYQQKPGQPPKLLIYWASIRESGVPDRFTGSGSGTFFTLTISSVQAEDLAVYYCQNDYNYPFTFGSGTKLEIK

How the values were obtained:
[1] = target: T3, Abeta(1-42) monomer in 0.1% NaOH (human); experiment: dot blot: antigen dilution series dotted on nitrocellulose, anti-mouse-IgG-POD detection
T3 construct: also called Abeta(1-42) monomer, 0.1% NaOH
Method: (§1) In order to characterize the selectivity of monoclonal anti Aβ(20-42) globulomer antibodies, they were tested for binding to different Aβ-forms. To this end, serial dilutions of the individual Aβ(1-42) forms ranging from 100 pmol/μl to 0.00001 pmol/μl in PBS supplemented with 0.2 mg/ml BSA were prepared. 1 μl of each dilution was blotted onto a nitrocellulose membrane. Detection was performed by incubating with the corresponding antibody (0.2 μg/ml) followed by immunostaining using Peroxidase conjugated anti-mouse-IgG and the staining reagent BM Blue POD Substrate (Roche).
(§2) The individual Aβ forms were applied in serial dilutions and incubated with the respective antibodies for immune reaction (1=Aβ(1-42) monomer, 0.1% NH₄OH; 2=Aβ(1-40) monomer, 0.1% NH₄OH; 3=Aβ(1-42) monomer, 0.1% NaOH; 4=Aβ(1-40) monomer, 0.1% NaOH; 5=Aβ(1-42) globulomer; 6=Aβ(12-42) globulomer; 7=Aβ(20-42) globulomer; 8=Aβ(1-42) fibril preparation; 9=sAPPα (Sigma); (first dot: 1 pmol)).

[2] = target: T4, Abeta(1-42) monomer in 0.1% NH4OH (human); experiment: as above
T4 construct: also called Abeta(1-42) monomer, 0.1% NH4OH
Method: as §1, §2

Abeta(12-42) globulomer [3] = target: T1, Abeta(12-42) globulomer; experiment: as above
Method: as §1, §2

[4] = target: T5, Abeta(1-42) fibril preparation (human, UniProt P05067 672-713); experiment: as above
T5 construct: also called Abeta(1-42) fibrils
Method: as §1, §2

[5] = target: T6, Abeta(1-40) monomer in 0.1% NH4OH (human); experiment: as above
T6 construct: also called Abeta(1-40) monomer, 0.1% NH4OH
Method: as §1, §2

Abeta(1-42) globulomer [6] = target: T7, Abeta(1-42) globulomer (human, UniProt P05067 672-713); experiment: as above
T7 construct: also called 38/48-kDa Abeta(1-42) globulomer
Method: as §1, §2

[7] = target: T8, Abeta(1-40) monomer in 0.1% NaOH (human); experiment: as above
T8 construct: also called Abeta(1-40) monomer, 0.1% NaOH
Method: as §1, §2

[8] = target: T9, sAPPalpha (Sigma cat. no. S9564) (UniProt P05067-4 18-612, limits assumed); experiment: as above
T9 construct: Bought protein; also called sAPPα; soluble Abeta precursor
Method: as §1, §2

[9] = target: T3, Abeta(1-42) monomer in 0.1% NaOH; experiment: dot blot, antigen dilution series on nitrocellulose, antibody 0.2 µg/ml, densitometry
Method: (§3) The dot blot was developed with 10 ml BM Blue POD Substrate for 10 min. The development was stopped by intense washing of the dot blot with H₂O. Quantitative evaluation was done based on a densitometric analysis (GS800 densitometer (BioRad) and software package Quantity one, Version 4.5.0 (Bio-Rad)) of the dot intensity. […] This threshold value was determined for every dot blot independently. The calculated value indicates the relation between recognition of Aβ(20-42) globulomer and the respective Aβ form for the given antibody.
as §2

[10] = target: T4, Abeta(1-42) monomer in 0.1% NH4OH; experiment: as above
Method: as §3, §2

Abeta(12-42) globulomer [11] = target: T1, Abeta(12-42) globulomer; experiment: as above
Method: as §3, §2

[12] = target: T5, Abeta(1-42) fibril preparation; experiment: as above
Method: as §3, §2

[13] = target: T6, Abeta(1-40) monomer in 0.1% NH4OH; experiment: as above
Method: as §3, §2

Abeta(1-42) globulomer [14] = target: T7, Abeta(1-42) globulomer; experiment: as above
Method: as §3, §2

[15] = target: T8, Abeta(1-40) monomer in 0.1% NaOH; experiment: as above
Method: as §3, §2

Abeta(20-42) globulomer = target: T2, Abeta(20-42) globulomer; experiment: dot blot, antigen dilution series on nitrocellulose, antibody 0.2 µg/ml, densitometry; reference antigen
Method: as §3, §2

[16] = target: T9, sAPPalpha (Sigma cat. no. S9564); experiment: dot blot, antigen dilution series on nitrocellulose (first dot 1 pmol), antibody 0.2 µg/ml, densitometry

T9 sequence (P05067 other isoform, or with tags, fused parts or gaps limits assumed): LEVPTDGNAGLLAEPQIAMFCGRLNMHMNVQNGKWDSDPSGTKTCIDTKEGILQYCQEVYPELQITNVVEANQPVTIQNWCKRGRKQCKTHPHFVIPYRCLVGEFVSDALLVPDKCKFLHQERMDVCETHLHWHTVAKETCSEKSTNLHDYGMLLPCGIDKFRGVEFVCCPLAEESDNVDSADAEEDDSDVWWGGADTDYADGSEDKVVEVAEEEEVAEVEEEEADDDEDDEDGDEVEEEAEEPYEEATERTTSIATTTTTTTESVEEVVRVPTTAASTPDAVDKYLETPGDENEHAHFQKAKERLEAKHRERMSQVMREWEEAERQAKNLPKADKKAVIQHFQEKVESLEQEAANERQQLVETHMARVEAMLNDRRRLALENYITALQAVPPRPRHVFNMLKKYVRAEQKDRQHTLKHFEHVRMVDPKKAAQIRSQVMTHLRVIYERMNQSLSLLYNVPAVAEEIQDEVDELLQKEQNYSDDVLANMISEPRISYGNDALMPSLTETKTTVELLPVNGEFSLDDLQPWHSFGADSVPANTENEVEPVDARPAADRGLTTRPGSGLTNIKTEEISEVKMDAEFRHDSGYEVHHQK
T6 sequence (peptide, as listed by the source): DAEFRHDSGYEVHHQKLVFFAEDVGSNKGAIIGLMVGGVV
T8 sequence (peptide, as listed by the source): as above

| binding result [1] | binding result [2] | binding result (Abeta(12-42) globulomer [3]) | binding result [4] | binding result [5] | binding result (Abeta(1-42) globulomer [6]) | binding result [7] | binding result [8] | dot blot ratio (recognition of Abeta(20-42) globulomer relative to this Abeta form) [9] | dot blot ratio (recognition of Abeta(20-42) globulomer relative to this Abeta form) [10] | dot blot ratio (recognition of Abeta(20-42) globulomer relative to this Abeta form) (Abeta(12-42) globulomer [11]) | dot blot ratio (recognition of Abeta(20-42) globulomer relative to this Abeta form) [12] | dot blot ratio (recognition of Abeta(20-42) globulomer relative to this Abeta form) [13] | dot blot ratio (recognition of Abeta(20-42) globulomer relative to this Abeta form) (Abeta(1-42) globulomer [14]) | dot blot ratio (recognition of Abeta(20-42) globulomer relative to this Abeta form) [15] | dot blot ratio (recognition of Abeta(20-42) globulomer relative to this Abeta form) (Abeta(20-42) globulomer) | dot blot ratio (recognition of Abeta(20-42) globulomer relative to this Abeta form) [16] | Binder |
| --- | --- | --- | --- | --- | --- | --- | --- | --- | --- | --- | --- | --- | --- | --- | --- | --- | --- |
| no binding | no binding | no binding | no binding | no binding | no binding | no binding | no binding |  |  |  |  |  |  |  |  |  | B1 |
| no binding | no binding | no binding | no binding | no binding | no binding | no binding | no binding | 39500 | 36000 | 60000 | 32600 | 27300 | 30000 | 110000 | 1 |  | B2 |
|  |  |  |  |  |  |  |  |  |  | 6 |  |  |  |  | 1 | 0.2 | B3 |
